Experimental data as given in paper PMC4028264.

How the values were obtained:
Experiment in all cases: native gel or EMSA
[1] = target: HIV-1 strain R2 gp140 fused to a modified GCN4 trimerization domain (HIV-1 strain R2 | not stated)
[2] = target: HIV-1 strain R2 gp140 with a 15 amino acid flexible linker between gp120 and the gp41 ectodomain, fu (HIV-1 strain R2 | not stated)
[3] = target: HIV-1 strain R2 soluble gp140 envelope glycoprotein (uncleaved) (HIV-1 strain R2)

## HIV-1 strain R2 gp140 fused to a modified GCN4 trimerization domain (domain or fragment)
[1]
  stoichiometry N: 3

## HIV-1 strain R2 gp140 with a 15 amino acid flexible linker between gp120 and the gp41 ectodomain, fu (domain or fragment)
[2]
  stoichiometry N: 3

## HIV-1 strain R2 soluble gp140 envelope glycoprotein (uncleaved) (domain or fragment)
[3]
  percent dimer: > 90%
  stoichiometry N: 2
